{"source": "paper PMC5095699", "about": "(Biochemistry, 2015)", "key": {"QdtA": {"target": "QdtA (Thermoanaerobacterium thermosaccharolyticum, UniProt Q6TFC5, Y17R/R97H)", "experiment": "X-ray crystal structure, […] A", "assay_type": "binding", "settings": "dTDP co-purified from E. coli, not added; pH 6; active site"}, "[1]": {"target": "3,4-ketoisomerase domain of FdtD (Shewanella denitrificans, UniProt Q12KT8)", "experiment": "X-ray crystal structure, […] A", "assay_type": "binding", "settings": "crystal soaked with 3 mM ligand, pH 7; active site, substrate analogue"}, "[2]": {"target": "3,4-ketoisomerase domain of FdtD from Shewanella denitrificans (Shewanella denitrificans)", "experiment": "crystal structure"}, "purified protein [3]": {"substrate": "Cc1cn([C@H]2C[C@H](O)[C@@H](COP(=O)(O)OP(=O)(O)O[C@H]3O[C@H](C)C(=O)[C@H](O)[C@H]3O)O2)c(=O)[nH]c1=O", "experiment": "purified protein", "settings": "50 mM HEPES pH 7.5, 0.2 mM NADPH, 1 mg/mL KijD10"}, "crystal structure [4]": {"target": "the molecule itself", "experiment": "crystal structure"}, "purified protein [5]": {"substrate": "Cc1cn([C@H]2C[C@H](O)[C@@H](COP(=O)(O)OP(=O)(O)O[C@H]3O[C@H](C)C(=O)[C@H](O)[C@H]3O)O2)c(=O)[nH]c1=O", "experiment": "purified protein", "assay_type": "biochemical, Thermoanaerobacterium thermosaccharolyticum", "settings": "50 mM HEPES pH 7.5, 0.2 mM NADPH, 1 mg/mL KijD10"}, "crystal structure [6]": {"target": "the molecule itself", "experiment": "crystal structure", "remark": "listed apart in the source"}, "purified protein [7]": {"substrate": "Cc1cn([C@H]2C[C@H](O)[C@@H](COP(=O)(O)OP(=O)(O)O[C@H]3O[C@H](C)C(=O)[C@H](O)[C@H]3O)O2)c(=O)[nH]c1=O", "experiment": "purified protein", "assay_type": "biochemical, Shewanella denitrificans", "settings": "50 mM HEPES pH 7.5, 0.2 mM NADPH, 1 mg/mL KijD10"}}, "note": "Like-named read-outs stand apart in the source and are kept apart here.", "data": [{"molecule": "Cc1cn([C@H]2C[C@H](O)[C@@H](COP(=O)(O)OP(=O)(O)O)O2)c(=O)[nH]c1=O", "note": "[dTDP]", "values": [{"measurement": "X-ray crystal structure, 2.3 A", "setting": "QdtA", "result": "Observed electron density for the dTDP moiety bound to the QdtA Y17R/R97H mutant enzyme"}]}, {"molecule": "Cc1cn([C@H]2C[C@H](O)[C@@H](COP(=O)(O)OP(=O)(O)O[C@H]3O[C@H](C)[C@@H](NC=O)[C@H](O)[C@H]3O)O2)c(=O)[nH]c1=O", "note": "[dTDP-4,6-dideoxy-4-formamido-glucose]", "values": [{"measurement": "X-ray crystal structure, 1.7 A", "setting": "[1]", "result": "structure of the enzyme was solved in the presence of dTDP-4,6-dideoxy-4-formamido-D-glucose"}]}, {"molecule": "3,4-ketoisomerase domain of FdtD from Shewanella denitrificans (domain or fragment)", "values": [{"measurement": "stoichiometry N", "setting": "[2]", "result": 2}]}, {"molecule": "QdtA (Thermoanaerobacterium thermosaccharolyticum; Y17R) (protein) MLYNVALIKFKDIADKRGHLTPIEGKIDIPFDIKRVYYITKVDKDITRGYHAHKKLHQVLICLNGSVKIRLKIPDEEKIIELNDPSVGLYIGPFLWREMFDFTEGCVLLVLASEYCDETDYIRNYDFYIDEAKKRF", "values": [{"measurement": "Km", "setting": "purified protein [3]", "result": "370 ± 60", "unit": "µM"}]}, {"molecule": "QdtA from Thermoanaerobacterium thermosaccharolyticum, wild-type apoenzyme (enzyme) MLYNVALIKFKDIADKYGHLTPIEGKIDIPFDIKRVYYITKVDKDITRGYHAHKKLHQVLICLNGSVKIRLKIPDEEKIIELNDPSVGLYIGPFLWREMFDFTEGCVLLVLASEYCDETDYIRNYDFYIDEAKKRF", "values": [{"measurement": "stoichiometry N", "setting": "crystal structure [4]", "result": 2}, {"measurement": "Km", "setting": "purified protein [5]", "result": "140 ± 10", "unit": "µM"}, {"measurement": "kcat", "setting": "purified protein [5]", "result": "3.85 ± 0.25", "unit": "s⁻¹"}, {"measurement": "kcat/Km", "setting": "purified protein [5]", "result": 28000, "unit": "M⁻¹ s⁻¹"}]}, {"molecule": "QdtA (Thermoanaerobacterium thermosaccharolyticum; Y37F) (protein) MLYNVALIKFKDIADKYGHLTPIEGKIDIPFDIKRVFYITKVDKDITRGYHAHKKLHQVLICLNGSVKIRLKIPDEEKIIELNDPSVGLYIGPFLWREMFDFTEGCVLLVLASEYCDETDYIRNYDFYIDEAKKRF", "values": [{"measurement": "Km", "setting": "purified protein [5]", "result": "34 ± 7", "unit": "µM"}, {"measurement": "kcat", "setting": "purified protein [5]", "result": "0.023 ± 0.004", "unit": "s⁻¹"}, {"measurement": "kcat/Km", "setting": "purified protein [5]", "result": 690, "unit": "M⁻¹ s⁻¹"}]}, {"molecule": "QdtA (Thermoanaerobacterium thermosaccharolyticum; R97H) (protein) MLYNVALIKFKDIADKYGHLTPIEGKIDIPFDIKRVYYITKVDKDITRGYHAHKKLHQVLICLNGSVKIRLKIPDEEKIIELNDPSVGLYIGPFLWHEMFDFTEGCVLLVLASEYCDETDYIRNYDFYIDEAKKRF", "values": [{"measurement": "Km", "setting": "purified protein [5]", "result": "61 ± 9", "unit": "µM"}, {"measurement": "kcat", "setting": "purified protein [5]", "result": "0.4 ± 0.06", "unit": "s⁻¹"}, {"measurement": "kcat/Km", "setting": "purified protein [5]", "result": 6500, "unit": "M⁻¹ s⁻¹"}]}, {"molecule": "QdtA Y17R/R97H double mutant from Thermoanaerobacterium thermosaccharolyticum (enzyme) MLYNVALIKFKDIADKRGHLTPIEGKIDIPFDIKRVYYITKVDKDITRGYHAHKKLHQVLICLNGSVKIRLKIPDEEKIIELNDPSVGLYIGPFLWHEMFDFTEGCVLLVLASEYCDETDYIRNYDFYIDEAKKRF", "values": [{"measurement": "Km", "setting": "purified protein [3]", "result": "21 ± 5", "unit": "µM"}, {"measurement": "stoichiometry N", "setting": "crystal structure [6]", "result": 2}]}, {"molecule": "3,4-ketoisomerase domain of FdtD (Shewanella denitrificans OS217) (protein) SNNFELKLQMSKVKGVSLHKFHLVNDLRGNLSVGEFEKDIPFTPKRYFTVFGVPNKEVRGEHAHKECKQFLICVSGNCSVLVDDGENREEYVLDSIDKGIYLPPMTWGVQYKYSKDAVLLVFASHYYDSDDYIRDYSTFKQMRQN", "values": [{"measurement": "Km", "setting": "purified protein [7]", "result": "790 ± 120", "unit": "µM"}, {"measurement": "kcat", "setting": "purified protein [7]", "result": "4.85 ± 0.56", "unit": "s⁻¹"}, {"measurement": "kcat/Km", "setting": "purified protein [7]", "result": 6100, "unit": "M⁻¹ s⁻¹"}]}]}
